Test results published in patent US20130202591A1 (ANAPTYSBIO, published 2013).
Numbering of substitutions follows the chain as printed. Values belong to the binder of their own block, whether it stands above or below them.

Key:
[1] = molecular target: T1, human IL-17 (human, UniProt Q16552 24-155); experiment: SPR (BIACORE), antibody captured by anti-human Fc, antigen in flow; grade: ++ strong binding, + binding, +/- close to background;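 note: antigen injected at two-fold dilutions from 50 nM over captured antibody at 30 µL/min, dissociation followed for 10 min, kinetics fitted with a 1:1 mass-transport model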
T1 construct: also called hIL-17; IL-17A
T1 sequence (Q16552 24-155 limits assumed): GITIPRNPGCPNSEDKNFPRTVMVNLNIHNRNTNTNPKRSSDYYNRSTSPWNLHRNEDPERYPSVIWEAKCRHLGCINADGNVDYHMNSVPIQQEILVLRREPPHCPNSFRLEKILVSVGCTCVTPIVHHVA
Description: BIACORE T100™ is used to determine antibody-antigen binding kinetics and affinity. The technology is based on surface plasmon resonance (SPR), an optical phenomenon that enables detection of label-free interactions in real time within a dextran biosensor matrix. It is therefore suited for measuring rate constants of association (kₒₙ) as well as dissociation (koff). All reagents and materials were purchased from GE Healthcare (Buckinghamshire, United Kingdom). […] 1×HBS-EP+ buffer (of 0.01M HEPES, 0.15M NaCl, 3 mM EDTA, 0.05% Polysorbate, pH 7.6) was used to reconstitute antigen at various concentrations (starting at 50 nM and using two-fold serial dilutions for each concentration). 210 μL of each antigen concentration was injected over captured antibody at a flow rate of 30 μL/min, then allowed to dissociate for 10 minutes. Surface was regenerated with 60 μL of 3M MgCl₂ after each cycle to establish baseline. Association and dissociation kinetic constants (kₐ and kd) were evaluated with “1:1 with mass transport” binding model in the BIACORE™ T100 Evaluation Software. The degree of binding for the BIACORE™ assay was measured as “++” (strong binding), “+” (binding), or “+/−” (close to background).

[2] = molecular target: T1, human IL-17; experiment: KINEXA 3000, solution equilibrium, free antibody captured on human IL-17a beads
Protocol: KINEXA® technology measures the unbound/free receptor molecule in solution phase. Measuring binding events in the solution phase with micro beads for maximized surface area avoids mass transport limitations and mobility effects inherent to methods that measure binding to a solid phase. […] Antibody-antigen solution was then flown over antigen-coupled beads at a rate of 0.25 mL/min. […] In order to achieve the most accurate measurement for each antibody, each “Kd controlled curve” (wherein the antibody concentration is below the Kd) was combined with the “receptor controlled curve” (where antibody concentration is well above the Kd) in N-curve analysis.

B1: MP4-9 (antibody, V domains shown)
VH: EVQLVESGGGLVQPGGSLRLSCAASGFTFSNYWMSWVRQAPGKGLEWVAAIKQDGSEKYYVDSVKGRFTISRDNAKNSLYLQMNSLRAEDTAVYYCARDYYDILTDYYIHYWYFDLWGRGTLVTVSS
VL: not shown
notes: Captured by anti-human Fc
binding result [1]: binds

B3: MP4-14 (antibody, V domains shown)
VH: B1 VH with N31S, K52N
VL: not shown
notes: Captured by anti-human Fc
binding result [1]: binds

B5: MP4-11 (antibody, V domains shown)
VH: B1 VH with A50N, A97V
VL: not shown
notes: Captured by anti-human Fc
binding result [1]: binds

B7: MP4-10 (antibody, V domains shown)
VH: B1 VH with D62G, A97V
VL: not shown
notes: Captured by anti-human Fc
binding result [1]: binds

B8: MP4-8 (antibody, V domains shown)
VH: B1 VH with A50N, K52N, A97V
VL: not shown
notes: Captured by anti-human Fc
binding result [1]: binds

B10: MP4-17 (antibody, V domains shown)
VH: B1 VH with A50N
VL: not shown
notes: Captured by anti-human Fc
binding result [1]: binds

B11: 847/772 (antibody, V domains shown)
VH: B1 VH with N31S, Y32H, A50S, Q53E
VL: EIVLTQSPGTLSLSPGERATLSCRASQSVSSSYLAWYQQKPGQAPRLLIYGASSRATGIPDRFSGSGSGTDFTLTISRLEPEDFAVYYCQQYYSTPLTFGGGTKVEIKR
notes: Captured by anti-human Fc
binding result [1]: binds

B14: 1144/773 (antibody, V domains shown)
VH: B1 VH with Y32H, S35N, A50S, K52R, Q53E
VL: not shown
notes: Captured by anti-human Fc
binding result [1]: binds

B15: 1129/773 (antibody, V domains shown)
VH: B1 VH with N31S, A50N, G66V
VL: not shown
notes: Captured by anti-human Fc
binding result [1]: binds

B16: 1147/773 (antibody, V domains shown)
VH: B1 VH with N31S, S35D, A50S, K52R, Q53E
VL: not shown
notes: Captured by anti-human Fc
binding result [1]: binds

B19: MP4-6 (antibody, V domains shown)
VH: B1 VH with N31S, A50N, K52N, D62G, A97V
VL: not shown
notes: Captured by anti-human Fc
binding result [1]: binds

B23: APE467-1138/773 (antibody, V domains shown)
VH: B1 VH with N31S, Y32H, A40T, A50S, Q53E, G66V
VL: not shown
notes: Human IgG (detected with anti-human IgG)
Kd [2]: 0.374 nM

B24: 1139/773 (antibody, V domains shown)
VH: B1 VH with N31S, Y32H, A40T, A50S, Q53E
VL: not shown
notes: Captured by anti-human Fc
binding result [1]: binds

B26: APE320-847/773 (antibody, V domains shown)
VH: B1 VH with N31S, Y32H, A50S, Q53E
VL: not shown
notes: as for B23
Kd [2]: 2.5 nM

B28: MP4-16 (antibody, V domains shown)
VH: B1 VH with K52N, D62G
VL: not shown
notes: Captured by anti-human Fc
binding result [1]: binds

B31: 878/772 (antibody, V domains shown)
VH: B1 VH with N31D, S35D, A50N, K52R, Q53E
VL: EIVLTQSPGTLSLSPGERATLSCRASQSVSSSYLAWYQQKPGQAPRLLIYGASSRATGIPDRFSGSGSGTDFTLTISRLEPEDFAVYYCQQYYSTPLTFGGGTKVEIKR
notes: Captured by anti-human Fc
binding result [1]: binds

B34: 846/773 (antibody, V domains shown)
VH: B1 VH with Y32S, S35T, A50S, K52N, Q53H, Y59H, D62G, A88V
VL: not shown
notes: Captured by anti-human Fc
binding result [1]: binds

B35: 847/842 (antibody, V domains shown)
VH: B1 VH with N31S, Y32H, A50S, Q53E
VL: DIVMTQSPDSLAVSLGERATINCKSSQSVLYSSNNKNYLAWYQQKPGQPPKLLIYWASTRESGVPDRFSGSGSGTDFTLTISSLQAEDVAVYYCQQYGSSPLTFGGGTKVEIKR
notes: Captured by anti-human Fc
binding result [1]: binds

B36: MP4-4 (antibody, V domains shown)
VH: B1 VH with S35N, D62G
VL: not shown
notes: Captured by anti-human Fc
binding result [1]: binds

B40: APE857-1622/773 (antibody, V domains shown)
VH: EVQLVESGGGLVQPGGSLRLSCAASGFTFSNHWMNWVRQTPGKGLEWVAAINEDGSEKYYVGSVKVRFTISRDNAKNSLYLQMNSLRVEDTAVYYCVRDYYDILTRDYYDILTDYYIHYWYFDLWGRGTLVTVSS
VL: not shown
notes: as for B23
Kd [2]: 0.0048 nM

The next lines start with the values.

binding result [1]: binds
B2: 887/841 (antibody, V domains shown)
VH: B1 VH with N31D, S35D, A50S, K52R, Q53E
VL: DIQMTQSPSSLSASVGDRVTITCRASQSISSYLNWYQQKPGKAPKLLIYAASSLQSGVPSRFSGSGSGTDFTLTISSLQPEDFAVYYCQQYGSSPLTFGGGTKVEIKR
notes: Captured by anti-human Fc

binding result [1]: binds
B4: MP4-21 (antibody, V domains shown)
VH: B1 VH with S35N, A50N, K52N, D62G
VL: not shown
notes: Captured by anti-human Fc

binding result [1]: binds
B6: 1146/773 (antibody, V domains shown)
VH: B1 VH with S35D, A50S, K52R, Q53E, D62G, A88V, A97V
VL: not shown
notes: Captured by anti-human Fc

Kd [2]: ~60 nM
B9: APE253-771/773 (antibody, V domains shown)
VH: B1 VH with N31S, Y32H, A50N, Q53E
VL: not shown
notes: Human IgG; also called Well 10

binding result [1]: binds
B12: 878/842 (antibody, V domains shown)
VH: B1 VH with N31D, S35D, A50N, K52R, Q53E
VL: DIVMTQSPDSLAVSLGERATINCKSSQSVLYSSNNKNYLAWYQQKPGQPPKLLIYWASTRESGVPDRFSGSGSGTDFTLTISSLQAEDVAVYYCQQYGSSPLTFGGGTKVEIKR
notes: Captured by anti-human Fc

binding result [1]: binds
B13: 1102/773 (antibody, V domains shown)
VH: B1 VH with N31S, S35D, A50N, K52R, Q53E
VL: not shown
notes: Captured by anti-human Fc

binding result [1]: binds
B17: MP4-2 (antibody, V domains shown)
VH: B1 VH with N31S, K52N, D62G, A97V
VL: not shown
notes: Captured by anti-human Fc

binding result [1]: binds
B18: MP4-22 (antibody, V domains shown)
VH: B1 VH with A97V
VL: not shown
notes: Captured by anti-human Fc

Kd [2]: 14.2 nM
B20: APE318-878/773 (antibody, V domains shown)
VH: B1 VH with N31D, S35D, A50N, K52R, Q53E
VL: not shown
notes: as for B23

binding result [1]: binds
B21: 1143/773 (antibody, V domains shown)
VH: B1 VH with Y32H, S35N, A50G, K52R, Q53E
VL: not shown
notes: Captured by anti-human Fc

binding result [1]: binds
B22: MP4-7 (antibody, V domains shown)
VH: B1 VH with A50N, K52N, D62G, A97V
VL: not shown
notes: Captured by anti-human Fc

binding result [1]: binds
B25: 1137/773 (antibody, V domains shown)
VH: B1 VH with N31S, A40T, A50N
VL: not shown
notes: Captured by anti-human Fc

binding result [1]: binds
B27: MP4-20 (antibody, V domains shown)
VH: B1 VH with D62G
VL: not shown
notes: Captured by anti-human Fc

binding result [1]: binds
B29: 1142/773 (antibody, V domains shown)
VH: B1 VH with N31D, S35D, A50S, K52R, Q53E, D62G, A88V, A97V
VL: not shown
notes: Captured by anti-human Fc

binding result [1]: binds
B30: 1134/773 (antibody, V domains shown)
VH: B1 VH with N31S, A40T, A50S, G66V
VL: not shown
notes: Captured by anti-human Fc

binding result [1]: binds
B32: MP4-23 (antibody, V domains shown)
VH: B1 VH with N31S, S35N, D62G, A97V
VL: not shown
notes: Captured by anti-human Fc

Kd [2]: 6.1 nM
B33: APE319-887/773 (antibody, V domains shown)
VH: B1 VH with N31D, S35D, A50S, K52R, Q53E
VL: not shown
notes: as for B23

binding result [1]: binds
B37: 887/772 (antibody, V domains shown)
VH: B1 VH with N31D, S35D, A50S, K52R, Q53E
VL: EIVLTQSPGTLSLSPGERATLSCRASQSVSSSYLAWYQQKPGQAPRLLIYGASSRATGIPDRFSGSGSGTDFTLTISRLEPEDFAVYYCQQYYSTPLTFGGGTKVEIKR
notes: Captured by anti-human Fc

binding result [1]: binds
B38: 1153/773 (antibody, V domains shown)
VH: B1 VH with N31S, Y32H, A50S, Q53E, G66V
VL: not shown
notes: Captured by anti-human Fc

binding result [1]: binds
B39: MP4-5 (antibody, V domains shown)
VH: B1 VH with S35N, D62G, A97V
VL: not shown
notes: Captured by anti-human Fc
